The values that follow come from patent US20060276387A1 (published 2006).

Sequences and labels used below:
B1: human PHD finger protein 1 (PHF1), N-terminus HA-tagged (other, not shown: small tags and cut ends)
chain: MAQPPRLSRSGASSLWDPASPAPTSGPRPRLWEGQDVLARWTDGLLYLGTIKKVDSAREVCLVQFEDDSQFLVLWKDISPAALPGEELLCCVCRSETVVPGNRLVSCEKCRHAYHQDCHVPRAPAPGEGEGTSWVCRQCVFAIATKRGGALKKGPYARAMLGMKLSLPYGLKGLDWDAGHLSNRQQSYCYCGGPGEWNLKMLQCRSCLQWFHEACTQCLSKPLLYGDRFYEFECCVCRGGPEKVRRLQLRWVDVAHLVLYHLSVCCKKKYFDFDREILPFTSENWDSLLLGELSDTPKGERSSKLLSALNSHKDRFISGREIKKRKCLFGLHARMPPPVEPPTGDGALTSFPSGQGPGGGVSRPLGKRRRPEPEPLRRRQKGKVEELGPPSAVRNQPEPQEQRERAHLQRALQASVSPPSPSPNQSYQGSSGYNFRPTDARCLPSSPIRMFASFHPSASTAGTSGDSGPPDRSPLELHIGFPTDIPKSAPHSMTASSSSVSSPSPGLPRRSAPPSPLCRSLSPGTGGGVRGGVGYLSRGDPVRVLARRVRPDGSVQYLVEWGGGGIF
modifications: 35S-methionine-labeled (in the pull-down)
B2: human distal-less homeobox 4 (DLX4), N-terminus HA-tagged (other, not shown: small tags and cut ends)
chain: MTSLPCPLPGRDASKAVFPDLAPVPSVAAAYPLGLSPTTAASPNLSYSRPYGHLLSYPYTEPANPGDSYLSCQQPAALSQPLCGPAEHPQELEADSEKPRLSPEPSERRPQAPAKKLRKPRTIYSSLQLQHLNQRFQHTQYLALPERAQLAAQLGLTQTQVKIWFQNKRSKYKKLLKQNSGGQEGDFPGRTFSVSPCSPPLPSLWDLPKAGTLPTSGYGNSFGAWYQHHSSDVLASPQMM
modifications: 35S-methionine-labeled (in the pull-down)
B3: human hepatocyte nuclear factor 3-gamma (HNF3G), N-terminus HA-tagged (other, not shown: small tags and cut ends)
chain: MLGSVKMEAHDLAEWSYYPEAGEVYSPVTPVPTMAPLNSYMTLNPLSSPYPPGGLPASPLPSGPLAPPAPAAPLGPTFPGLGVSGGSSSSGYGAPGPGLVHGKEMPKGYRRPLAHAKPPYSYISLITMAIQQAPGKMLTLSEIYQWIMDLFPYYRENQQRWQNSIRHSLSFNDCFVKVARSPDKPGKGSYWALHPSSGNMFENGCYLRRQKRFKLEEKVKKGGSGAATTTRNGTGSAASTTTPAATVTSPPQPPPPAPEPEAQGGEDVGALDCGSPASSTPYFTGLELPGELKLDAPYNFNHPFSINNLMSEQTPAPPKLDVGFGGYGAEGGEPGVYYQGLYSRSLLNAS
modifications: 35S-methionine-labeled (in the pull-down)

Sequence of human IPF1, N-terminus FLAG-tagged (from pcDNA-FLAG-IPF1) (P52945 whole entry): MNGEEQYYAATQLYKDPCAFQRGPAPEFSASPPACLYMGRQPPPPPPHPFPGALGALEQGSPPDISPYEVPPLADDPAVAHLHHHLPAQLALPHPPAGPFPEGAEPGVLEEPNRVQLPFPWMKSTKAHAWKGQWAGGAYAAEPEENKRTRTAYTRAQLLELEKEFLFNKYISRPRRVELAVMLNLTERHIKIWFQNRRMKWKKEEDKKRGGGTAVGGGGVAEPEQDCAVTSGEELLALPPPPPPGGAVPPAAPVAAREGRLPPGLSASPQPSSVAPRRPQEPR

This test concerns the target human IPF1, N-terminus FLAG-tagged (from pcDNA-FLAG-IPF1) (human, UniProt P52945 1-283, limits assumed). Put plainly: cell-based or functional assay.
As for B1, the “IPF1-dependent human insulin promoter activity (luciferase reporter, HeLa cells), inhibition” value was approximately 25%.
Consider B2, for which the “IPF1-dependent human insulin promoter activity (luciferase reporter, HeLa cells), inhibition” value was approximately 60%.
The value for B3 was approximately 45%.
